Results published in patent US20170233470A1.

Molecular target: NTSR1
Test: cell-based or functional assay

- decrease in cell growth (proliferation) of CHO cells overexpressing NTSR1: 60%
Substance: Neurotensin (NTS) (from UniProt P30990 151-163) (peptide)
